From FireProtDB (doi:10.1110/ps.9.2.387)

Conditions: Escherichia coli (strain K12), Thermal, DSC, NaCl 100 mM, reversible: yes(>85%)
[1] = pH 5.5, Sodium cacodylate 10 mM

Chain of Cold shock protein CspA wild type, P0A9X9 (P0A9X9 whole entry): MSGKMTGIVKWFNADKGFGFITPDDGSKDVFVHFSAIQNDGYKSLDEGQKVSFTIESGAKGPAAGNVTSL

Substance: Cold shock protein CspA wild type, P0A9X9
- Tm (pH 4, Sodium acetate 10 mM): 33.2 °C
- unfolding enthalpy (calorimetric) (pH 4, Sodium acetate 10 mM): 22.7 kcal/mol
- Tm (pH 4.5, Sodium acetate 10 mM): 42.1 °C
- unfolding enthalpy (calorimetric) (pH 4.5, Sodium acetate 10 mM): 28.9 kcal/mol
- Tm (pH 5, Sodium acetate 10 mM): 47.7 °C
- unfolding enthalpy (calorimetric) (pH 5, Sodium acetate 10 mM): 33 kcal/mol
- Tm [1]: 54.4 °C
- unfolding enthalpy (calorimetric) [1]: 39.9 kcal/mol
- Tm (pH 6, MOPS 10 mM): 54.1 °C
- unfolding enthalpy (calorimetric) (pH 6, MOPS 10 mM): 39.9 kcal/mol
- Tm (pH 6, PIPES 10 mM): 53.1 °C
- unfolding enthalpy (calorimetric) (pH 6, PIPES 10 mM): 36.1 kcal/mol
- Tm (pH 6, Sodium cacodylate 10 mM): 56.5 °C
- unfolding enthalpy (calorimetric) (pH 6, Sodium cacodylate 10 mM): 44.9 kcal/mol
- Tm (pH 6, Sodium phosphate 10 mM): 55.9 °C
- unfolding enthalpy (calorimetric) (pH 6, Sodium phosphate 10 mM): 39.4 kcal/mol
- Tm (pH 6.5, HEPES 10 mM): 56.5 °C
- unfolding enthalpy (calorimetric) (pH 6.5, HEPES 10 mM): 43.5 kcal/mol
- Tm (pH 6.5, MOPS 10 mM): 56.1 °C
- unfolding enthalpy (calorimetric) (pH 6.5, MOPS 10 mM): 39.9 kcal/mol
- Tm (pH 6.5, PIPES 10 mM): 55.2 °C
- unfolding enthalpy (calorimetric) (pH 6.5, PIPES 10 mM): 41.4 kcal/mol
- Tm (pH 6.5, Sodium citrate 10 mM): 56.8 °C
- unfolding enthalpy (calorimetric) (pH 6.5, Sodium citrate 10 mM): 45.2 kcal/mol
- Tm (pH 6.5, Sodium phosphate 10 mM): 56.1 °C
- unfolding enthalpy (calorimetric) (pH 6.5, Sodium phosphate 10 mM): 43.3 kcal/mol
- Tm (pH 6.5, imidazole 10 mM): 53.7 °C
- unfolding enthalpy (calorimetric) (pH 6.5, imidazole 10 mM): 39.2 kcal/mol
- Tm (pH 7, HEPES 10 mM): 57.6 °C
- unfolding enthalpy (calorimetric) (pH 7, HEPES 10 mM): 47.6 kcal/mol
- Tm (pH 7, MOPS 10 mM): 56.4 °C
- unfolding enthalpy (calorimetric) (pH 7, MOPS 10 mM): 40.6 kcal/mol
- Tm (pH 7, PIPES 10 mM): 55.7 °C
- unfolding enthalpy (calorimetric) (pH 7, PIPES 10 mM): 41.4 kcal/mol
- Tm (pH 7, Sodium cacodylate 10 mM): 57 °C
- unfolding enthalpy (calorimetric) (pH 7, Sodium cacodylate 10 mM): 47.3 kcal/mol
- Tm (pH 7, Sodium citrate 10 mM): 57 °C
- unfolding enthalpy (calorimetric) (pH 7, Sodium citrate 10 mM): 46.4 kcal/mol
- Tm (pH 7, Sodium phosphate 10 mM): 57 °C
- unfolding enthalpy (calorimetric) (pH 7, Sodium phosphate 10 mM): 43.3 kcal/mol
- Tm (pH 7, imidazole 10 mM): 55.8 °C
- unfolding enthalpy (calorimetric) (pH 7, imidazole 10 mM): 40.1 kcal/mol
- Tm (pH 7.5, HEPES 10 mM): 57.8 °C
- unfolding enthalpy (calorimetric) (pH 7.5, HEPES 10 mM): 49 kcal/mol
- Tm (pH 7.5, MOPS 10 mM): 56.2 °C
- unfolding enthalpy (calorimetric) (pH 7.5, MOPS 10 mM): 41.4 kcal/mol
- Tm (pH 7.5, PIPES 10 mM): 56 °C
- unfolding enthalpy (calorimetric) (pH 7.5, PIPES 10 mM): 42.3 kcal/mol
- Tm (pH 7.5, Sodium citrate 10 mM): 57.3 °C
- unfolding enthalpy (calorimetric) (pH 7.5, Sodium citrate 10 mM): 48.3 kcal/mol
- Tm (pH 7.5, Sodium phosphate 10 mM): 57.1 °C
- unfolding enthalpy (calorimetric) (pH 7.5, Sodium phosphate 10 mM): 46.9 kcal/mol
- Tm (pH 7.5, imidazole 10 mM): 55.9 °C
- unfolding enthalpy (calorimetric) (pH 7.5, imidazole 10 mM): 39 kcal/mol
- Tm (pH 8, MOPS 10 mM): 57.1 °C
- unfolding enthalpy (calorimetric) (pH 8, MOPS 10 mM): 42.5 kcal/mol
- Tm (pH 8, imidazole 10 mM): 56.8 °C
- unfolding enthalpy (calorimetric) (pH 8, imidazole 10 mM): 38.2 kcal/mol
- Tm (pH 8.5, HEPES 10 mM): 56.5 °C
- unfolding enthalpy (calorimetric) (pH 8.5, HEPES 10 mM): 42.1 kcal/mol
- Tm (pH 8.5, Sodium borate 10 mM): 57.7 °C
- unfolding enthalpy (calorimetric) (pH 8.5, Sodium borate 10 mM): 44.5 kcal/mol
- Tm (pH 8.7, Sodium borate 10 mM): 57.6 °C
- unfolding enthalpy (calorimetric) (pH 8.7, Sodium borate 10 mM): 43.7 kcal/mol
